Measured values published in patent US20260108588A1, “A COMPLEX COMPRISING A ALPHA-LACTALBUMIN AND A FATTY ACID OR LIPID FOR USE IN THE TREATMENT OR PREVENTION OF CANCER” (LINNANE PHARMA AB, priority 2022, published 2026).

Columns and labels:
[1] = system: DLD1 cells; experiment: Cell death assays (Prestoblue and ATPlite); format: cell-based, human; conditions: 7, 21 and 35 μM each, FIG. 12g-i
Protocol: Two assays were used as an indirect measure of cell death. Luminescence-based ATPlite™ kit (Perkin Elmer) as well as the Prestoblue assay (ThermoFisher Scientific). Cells (5×10^4 cells/well) were seeded in serum-free RPMI-1640 on 96-well plates and treated with BAMLET and alpha1-oleate at different concentration (7, 21, and 35 μM) and incubated for one hour. Afterward, FCS was added at concentration of 5% and the cells were continuously incubated for two hours at 37° C., at the end of which the two kits were used according to manufactures' instructions. Luminescence and fluorescence were measured using a microplate reader (Infinite F200, Tecan). The experiments were performed in triplicate and repeated twice.

[2] = system: bladder cancer; conditions: patients; cited from earlier work
[3] = system: tumor cells; conditions: cited from earlier work
[4] = system: skin papillomas; conditions: topical application; cited from earlier work
[5] = system: bladder cancer; conditions: local instillations; cited from earlier work

Molecule	tumoricidal effect, BAMLET compared with alpha1-oleate [1]	therapeutic efficacy in bladder cancer [2]	tumor cell killing in vitro [3]	effect on skin papillomas [4]	tumor size in bladder cancer [5]
alpha1-oleate: HAMLET family member formed by the N-terminal alpha-helical peptide (aa 1-39) of alpha-lactalbumin and oleate [reference compound]	similar	has shown therapeutic efficacy			
HAMLET: tumoricidal unfolded protein-lipid complex of partially unfolded human α-lactalbumin and oleic acid (protein, UniProt P00709 20-142, looked up, complexed with oleic acid) Alpha-lactalbumin: KQFTKCELSQLLKDIDGYGGIALPELICTMFHTSGYDTQAIVENNESTEYGLFQISNKLWCKSSQVPQSRNICDISCDKFLDDDITDDIMCAKKILDIKGIDYWLAHKALCTEKLEQWLCEKL			kills many types of tumor cells	removed or reduced skin papillomas	caused a reduction in tumor size
